{"source": "the supplement of paper PMC10126150", "note": "± gives the standard deviation of the averaged measurements.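 Note: ATP exposure 15 min at 22 °C before imaging.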", "data": [{"test_system": "ATP", "experiment": "switch fluorescence ratio, 500 uM ATP over buffer (Cy3 cluster intensity, sum of 5 cycles each) (fold (ratio)); higher = stronger signal-on switching upon ATP binding; sequences stand for … in TCGTCGGCAGCGTCAGATGTGTATAAGAGACAGTTTTTTTTTTTTTTTTTTTTTTTTT…TC", "conditions": "aptamer strand: ATP DNA aptamer (quencher-CACCTGGGGGAGTATTGCGGAGGAAGG + anchor), 100 nM annealed; ATP concentration: 500 uM", "in_short": "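Cy3-labelled switching-strand clusters on a modified Illumina MiSeq flow-cell were annealed to 100 nM quencher-labelled ATP aptamer and imaged first in selection buffer, then after 15 min with 500 uM ATP at 22 °C. NaOH stripping and re-annealing separated each of five buffer/ATP cycles, and clusters outside 100-1000 RFU were excluded. The fluorescence ratio sums target-cycle Cy3 intensity over buffer-cycle Cy3 intensity per cluster and averages it per switch-domain sequence.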", "values": [{"sequence": "TTTCAAAGGG", "switch fluorescence ratio": "0.994 ± 0.015"}, {"sequence": "TTTCAAATCA", "switch fluorescence ratio": "1.01 ± 0.037"}, {"sequence": "TTTCAAGAGT", "switch fluorescence ratio": "1.03 ± 0.034"}, {"sequence": "TTTCAAGCAT", "switch fluorescence ratio": "1.02 ± 0.017"}, {"sequence": "TTTCAAGGGT", "switch fluorescence ratio": "0.9851 ± 0.0031"}, {"sequence": "TTTCAATCAT", "switch fluorescence ratio": "0.983 ± 0.038"}, {"sequence": "TTTCAATTTT", "switch fluorescence ratio": "0.996 ± 0.026"}, {"sequence": "TTTCACACGT", "switch fluorescence ratio": "1.02 ± 0.024"}, {"sequence": "TTTCACAGCT", "switch fluorescence ratio": "1.03 ± 0.041"}, {"sequence": "TTTCAGGACT", "switch fluorescence ratio": "0.996 ± 0.041"}, {"sequence": "TTTCAGGGAA", "switch fluorescence ratio": "0.99 ± 0.054"}, {"sequence": "TTTCAGGGAG", "switch fluorescence ratio": "1.04 ± 0.056"}, {"sequence": "TTTCAGGTGG", "switch fluorescence ratio": "1.02 ± 0.015"}, {"sequence": "TTTCAGTATG", "switch fluorescence ratio": "1.02 ± 0.023"}, {"sequence": "TTTCAGTTCT", "switch fluorescence ratio": "0.9773 ± 0.005"}, {"sequence": "TTTCATCCCC", "switch fluorescence ratio": "1.07 ± 0.034"}, {"sequence": "TTTCCACAGG", "switch fluorescence ratio": "1.396 ± 0.0082"}, {"sequence": "TTTCCAGTTC", "switch fluorescence ratio": "1.37 ± 0.57"}, {"sequence": "TTTCCCAAAA", "switch fluorescence ratio": "1.04 ± 0.08"}, {"sequence": "TTTCCCAATT", "switch fluorescence ratio": "1.16 ± 0.16"}, {"sequence": "TTTCCCGCTC", "switch fluorescence ratio": "1.93 ± 0.33"}, {"sequence": "TTTCCGATTT", "switch fluorescence ratio": "0.9886 ± 0.0024"}, {"sequence": "TTTCCGGATT", "switch fluorescence ratio": "1.02 ± 0.059"}, {"sequence": "TTTCCGTTAT", "switch fluorescence ratio": "2.41 ± 1.9"}, {"sequence": "TTTCCGTTGA", "switch fluorescence ratio": "1.23 ± 0.32"}, {"sequence": "TTTCCGTTTG", "switch fluorescence ratio": "1.16 ± 0.32"}, {"sequence": "TTTCCTCTGG", "switch fluorescence ratio": "1.95 ± 1.4"}, {"sequence": "TTTCCTGGGG", "switch fluorescence ratio": "1.04 ± 0.039"}, {"sequence": "TTTCCTGTAT", "switch fluorescence ratio": "0.972 ± 0.046"}, {"sequence": "TTTCCTTTGG", "switch fluorescence ratio": "1.01 ± 0.032"}, {"sequence": "TTTCGAAAGG", "switch fluorescence ratio": "0.983 ± 0.043"}, {"sequence": "TTTCGAAGGG", "switch fluorescence ratio": "1.04 ± 0.07"}, {"sequence": "TTTCGAGAAG", "switch fluorescence ratio": "1.05 ± 0.054"}, {"sequence": "TTTCGAGGAC", "switch fluorescence ratio": "0.983 ± 0.011"}, {"sequence": "TTTCGATGTT", "switch fluorescence ratio": "0.95 ± 0.051"}, {"sequence": "TTTCGATTTT", "switch fluorescence ratio": "0.993 ± 0.04"}, {"sequence": "TTTCGCCATT", "switch fluorescence ratio": "1.3 ± 0.46"}, {"sequence": "TTTCGGAATT", "switch fluorescence ratio": "1.35 ± 0.48"}, {"sequence": "TTTCGGCTTT", "switch fluorescence ratio": "1.24 ± 0.3"}, {"sequence": "TTTCGGGACT", "switch fluorescence ratio": "1.03 ± 0.048"}, {"sequence": "TTTCGGGGCA", "switch fluorescence ratio": "1.02 ± 0.034"}, {"sequence": "TTTCGGGGTG", "switch fluorescence ratio": "1.09 ± 0.17"}, {"sequence": "TTTCGGGTAT", "switch fluorescence ratio": "1.05 ± 0.011"}, {"sequence": "TTTCGGGTTG", "switch fluorescence ratio": "1.02 ± 0.042"}, {"sequence": "TTTCGGGTTT", "switch fluorescence ratio": "0.989 ± 0.028"}, {"sequence": "TTTCGGTAAA", "switch fluorescence ratio": "1.026 ± 0.0039"}, {"sequence": "TTTCGGTGTT", "switch fluorescence ratio": "0.981 ± 0.041"}, {"sequence": "TTTCGGTTCT", "switch fluorescence ratio": "0.991 ± 0.012"}, {"sequence": "TTTCGGTTGG", "switch fluorescence ratio": "0.999 ± 0.032"}, {"sequence": "TTTCGGTTGT", "switch fluorescence ratio": "1 ± 0.022"}, {"sequence": "TTTCGTACGG", "switch fluorescence ratio": "1.03 ± 0.087"}, {"sequence": "TTTCGTATTG", "switch fluorescence ratio": "0.991 ± 0.02"}, {"sequence": "TTTCGTCAGG", "switch fluorescence ratio": "0.997 ± 0.038"}, {"sequence": "TTTCGTCATG", "switch fluorescence ratio": "1.03 ± 0.065"}, {"sequence": "TTTCGTGCTT", "switch fluorescence ratio": "1.02 ± 0.032"}, {"sequence": "TTTCGTGGCA", "switch fluorescence ratio": "1.02 ± 0.066"}, {"sequence": "TTTCGTGGTC", "switch fluorescence ratio": "1.02 ± 0.015"}, {"sequence": "TTTCGTGTAG", "switch fluorescence ratio": "1 ± 0.032"}, {"sequence": "TTTCGTTCGC", "switch fluorescence ratio": "1.302 ± 0.013"}, {"sequence": "TTTCGTTGTA", "switch fluorescence ratio": "0.973 ± 0.001"}, {"sequence": "TTTCTAACTC", "switch fluorescence ratio": "1 ± 0.053"}, {"sequence": "TTTCTACTCG", "switch fluorescence ratio": "0.995 ± 0.017"}, {"sequence": "TTTCTAGTGG", "switch fluorescence ratio": "0.999 ± 0.03"}, {"sequence": "TTTCTATACG", "switch fluorescence ratio": "1.02 ± 0.031"}, {"sequence": "TTTCTATATA", "switch fluorescence ratio": "1 ± 0.052"}, {"sequence": "TTTCTCGTAA", "switch fluorescence ratio": "1.58 ± 0.55"}, {"sequence": "TTTCTGATTT", "switch fluorescence ratio": "0.983 ± 0.022"}, {"sequence": "TTTCTGCAGC", "switch fluorescence ratio": "1.24 ± 0.14"}, {"sequence": "TTTCTGGCTT", "switch fluorescence ratio": "1.02 ± 0.051"}, {"sequence": "TTTCTGGTT", "switch fluorescence ratio": "1.01 ± 0.038"}, {"sequence": "TTTCTTAGTG", "switch fluorescence ratio": "0.9622 ± 0.0086"}, {"sequence": "TTTCTTGGGA", "switch fluorescence ratio": "1 ± 0.059"}, {"sequence": "TTTCTTTAGT", "switch fluorescence ratio": "1 ± 0.04"}, {"sequence": "TTTCTTTCAA", "switch fluorescence ratio": "1.01 ± 0.021"}, {"sequence": "TTTCTTTGAT", "switch fluorescence ratio": "0.998 ± 0.029"}, {"sequence": "TTTCTTTGCA", "switch fluorescence ratio": "1.058 ± 0.0081"}, {"sequence": "TTTCTTTTGG", "switch fluorescence ratio": "1.1 ± 0.09"}, {"sequence": "TTTGAA", "switch fluorescence ratio": "0.9556 ± 0.0024"}, {"sequence": "TTTGAAAAGG", "switch fluorescence ratio": "1.01 ± 0.039"}, {"sequence": "TTTGAACTGT", "switch fluorescence ratio": "1.18 ± 0.14"}, {"sequence": "TTTGAACTTG", "switch fluorescence ratio": "1.01 ± 0.024"}, {"sequence": "TTTGAAGGTA", "switch fluorescence ratio": "1.01 ± 0.025"}, {"sequence": "TTTGAATGGG", "switch fluorescence ratio": "0.985 ± 0.029"}, {"sequence": "TTTGACATGG", "switch fluorescence ratio": "0.955 ± 0.029"}, {"sequence": "TTTGACGCAT", "switch fluorescence ratio": "1.6 ± 0.67"}, {"sequence": "TTTGACGGGC", "switch fluorescence ratio": "1.05 ± 0.032"}, {"sequence": "TTTGACTTTC", "switch fluorescence ratio": "1.07 ± 0.025"}, {"sequence": "TTTGAGAATC", "switch fluorescence ratio": "0.977 ± 0.017"}, {"sequence": "TTTGAGAGCT", "switch fluorescence ratio": "0.977 ± 0.014"}, {"sequence": "TTTGAGAGTT", "switch fluorescence ratio": "1.03 ± 0.058"}, {"sequence": "TTTGAGCAGA", "switch fluorescence ratio": "0.97 ± 0.02"}, {"sequence": "TTTGAGCTGT", "switch fluorescence ratio": "1.02 ± 0.042"}, {"sequence": "TTTGAGGCCT", "switch fluorescence ratio": "0.99 ± 0.025"}, {"sequence": "TTTGAGGGTG", "switch fluorescence ratio": "1.07 ± 0.065"}, {"sequence": "TTTGAGGGTT", "switch fluorescence ratio": "0.983 ± 0.026"}, {"sequence": "TTTGAGGTCG", "switch fluorescence ratio": "1.06 ± 0.063"}, {"sequence": "TTTGAGGTCT", "switch fluorescence ratio": "1.05 ± 0.072"}, {"sequence": "TTTGAGTGGC", "switch fluorescence ratio": "0.969 ± 0.041"}, {"sequence": "TTTGAGTGGT", "switch fluorescence ratio": "0.993 ± 0.013"}, {"sequence": "TTTGAGTGTG", "switch fluorescence ratio": "0.997 ± 0.03"}]}]}
